Molecular target: T1, Tau peptide A6940 (biotin (bound via biotin to a streptavidin biosensor in the Octet assay; position of the biotin not stated))
T1 peptide: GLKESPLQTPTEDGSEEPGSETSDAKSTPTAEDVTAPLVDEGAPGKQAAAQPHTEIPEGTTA
Assay: ITC

Kd: 220 nM
B1: CBTAU-28.1 (S32R[VL];E35K[VL]) (antibody, V domains shown)
VH: QVQLQQSGAEVKKPGESLKISCEASGYSFTNYWIGWVRQMPGKGLEWMGIIYPGDSDTRYSPPFQGQVTITADRSITTAYLEWSSLKASDTAMYYCARVGRPSKGGWFDPWGQGTLVTVSS
VL: DIQMTQSPDSLAVSLGERATINCESSQTLLYRSNKKNYLAWYQQKPGQPPKLLISWASTPESGVPDRFSGSGSGTSFTLTISSLQAEDVAVYYCQQYYNSPYTFGQGTRLEIK

— patent US20200369754A1 (published 2020)
